The values that follow come from patent US6905818 (MAX PLANCK GESELLSCHAFT ZUR FORDERUNGDER WISSENSCHAFTEN, dated 2005).

The target in this test is T1, LexA protein expressed from pBTM117c (UniProt P0A7C2 1-202).
T1 construct: range 1-220; also called strain x1a
T1 sequence (looked up): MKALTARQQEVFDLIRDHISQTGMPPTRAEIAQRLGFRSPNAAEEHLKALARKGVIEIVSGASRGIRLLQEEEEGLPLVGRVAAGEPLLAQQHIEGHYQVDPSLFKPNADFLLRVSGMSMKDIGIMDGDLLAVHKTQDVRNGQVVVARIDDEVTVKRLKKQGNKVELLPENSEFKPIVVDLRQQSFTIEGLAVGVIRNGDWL
In words: yeast two-hybrid, growth on SD-leu-trp-his and β-galactosidase membrane assay. The protocol:
Two transformants from each transformation were investigated for the presence of protein—protein interactions by testing the ability of the yeast cells to grow on SD-leu-trp, SD-leu-trp-his, SD-leu+CAN and SD-trp+CHX plates and by the β-galactosidase membrane assay (Breeden and Nasmyth, 1985). […] After selection of the yeast strains harboring the different combinations of the two-hybrid plasmids on SD-leu+CAN and SD-trp+CHX the resulting strains were also analyzed by the β-galactosidase assay. After incubating the membrane containing all three strains on SD-trp+CHX medium only progeny of the yeast strain that originally harbored both the plasmids pBTM117c-HIP1 & pGAD427 yet which had lost the pGAD427 plasmid through counterselection turned blue after incubating in X-Gal solution. […] In comparison, the yeast strain harboring both the plasmids pBTM117c-SIM1 & pGAD427-ARNT is a positive clone that expresses interacting LexA and GAL4ad fusion proteins, because both the LexA and the Gal4ad fusion proteins are necessary for the activation of the reporter genes. […] With the membranes from the SD-leu+CAN plate false positive clones expressing an auto-activating GAL4ad-LexA fusion protein were also detected by the β-galactosidase assay.

B1: GAL4ad expressed from pGAD427 (other, yeast, UniProt P04386 768-881, looked up)
chain: ANFNQSGNIADSSLSFTFTNSSNGPNLITTQTNSQALSQPIASSNVHDNFMNNEITASKIDDGNNSKPLSPGWTDQTAYNAFGITTGMFNTTTMDDVYNYLFDDEDTPPNPKKE
notes: range 768-881; also called strain y1α
In the case of B1, the binding result was “no binding”.
